Assay results: patent US10752675B2, “Compounds for treating the remyelination blockade in diseases associated with the expression of HERV-W envelope protein” (GENEURO S.A., priority 2012, dated 2020)
Entries after “also recorded” stand apart in the source; their conditions may differ.

How the values were obtained:
human OPC = assay: Expression of CNPase in human OPC in primary culture stimulated by MSRV-Env, with or without GNbAC1 (immunocytochemistry); assay type: cell-based; details: for CNPase positive cells, normalized to control condition (buffer = 100%): pooled data
Protocol: Full length recombinant MSRV-Env was produced and purified by PX′Therapeutics (548 aa; 61.44 KDa) (batch 110719-1). The initial concentration was 0.6 mg/ml (9.76 μM). MSRV-Env Buffer (20 mM Trizma-HCl, pH 7.5, 150 mM NaCl, 1.5% SDS, 10 mM DTT) was provided by PX′Therapeutics. This solution was used as a negative control. GNbAC1 (Batch T96/bAC1/B1; GMP production) was produced and purified by Polymun Scientific, Vienna, Austria. The initial concentration was 10 mg/ml (68.03 μM).
Human OPC were stimulated with the different treatments either by coating solutions on the cell culture plate surface before cells seeding or by adding them in the cell culture medium after cells seeding. In any case, labtek 8-wells chamber slides (Nunc) were previously coated with poly-L-lysine (Sigma-Aldrich) overnight at 37° C.
The different treatments were diluted in PBS under a sterile laminar flow hood (Fischer Bioblock, France) and the Labtek 8 wells chambers slides (Nunc; 250 μl per well) were coated as follows: • MSRV-Env (1 μg/ml) coated for 2 hours at 37° C. • MSRV-Env Buffer (same dilution than MSRV-Env) coated for 2 hours at 37° C. • MSRV-Env+GNbAC1 A1: MSRV-Env (1 μg/ml) and GNbAC1 (7.35 μg/ml=50 nM) mixture coated for 2 hours at 37° C. • MSRV-Env+GNbAC1 A2: MSRV-Env (1 μg/ml) and GNbAC1 (29.4 μg/ml=200 nM) mixture coated for 2 hours at 37° C. • MSRV-Env+GNbAC1 B1: MSRV-Env (1 μg/ml) coated for 2 hours at 37° C., washed with PBS and subsequently coated with GNbAC1 (7.35 μg/ml=50 nM) for 1 hour at 37° C. • MSRV-Env+GNbAC1 B2: MSRV-Env (1 μg/ml) coated for 2 hours at 37° C., washed with PBS and subsequently coated with GNbAC1 (29.4 μg/ml=200 nM) for 1 hour at 37° C. • GNbAC1 A1 alone: GNbAC1 (7.35 μg/ml=50 nM) coated for 2 hours at 37° C. • GNbAC1 A2 alone: GNbAC1 (29.4 μg/ml=200 nM) coated for 2 hours at 37° C. • GNbAC1 B1 alone: PBS for 2 hours at 37° C., then coated with GNbAC1 (7.35 μg/ml=50 nM) for 1 hour at 37° C. • GNbAC1 B2 alone: PBS for 2 hours at 37° C., then coated with GNbAC1 (29.4 μg/ml=200 nM) for 1 hour at 37° C. • BSA (1 μg/ml) coated for 2 hours at 37° C. • BSA+GNbAC1 A1: BSA (1 μg/ml) and GNbAC1 (7.35 μg/ml=50 nM) mixture coated for 2 hours at 37° C. • BSA+GNbAC1 A2: BSA (1 μg/ml) and GNbAC1 (29.4 μg/ml=200 nM) mixture coated for 2 hours at 37° C. • BSA+GNbAC1 B1: BSA (1 μg/ml) coated for 2 hours at 37° C., washed with PBS and subsequently coated with GNbAC1 (7.35 μg/ml=50 nM) for 1 hour at 37° C. • BSA+GNbAC1 B2: BSA (1 μg/ml) coated for 2 hours at 37° C., washed with PBS and subsequently coated with GNbAC1 (29.4 μg/ml=200 nM) for 1 hour at 37° C. Human Oligodendrocyte Precursor Cells Culture
The vial containing the human OPC was placed in a 37° C. water bath and gently agitated by rotation until the content was completely thawed. The cells were gently resuspended with a 1 ml Gilson pipette. Then, they were diluted in complete OPCM, and seeded into the 8-wells labtek culture vessels (7000 cells/cm^2=10000 cells per well) previously coated with poly-L-lysine (0.01%, Sigma) and with (or without) the treatments described above (see 3.2.1.1) under a sterile laminar flow hood (Fischer Bioblock, France). The cultures were incubated at 37° C.; 5% CO2 until subsequent immunocytochemistry experiments. The growth medium was changed the next day to remove the residual DMSO and unattached cells in the cultures treated for 72 hours.
After 3 hours of pre-cultivation (see 3.2.1.2) of the human OPC in the 8-well labtek culture vessels, the cells were incubated at 37° C. for 24 hours or 72 hours in 8-wells labteks (250 μl/well) with the addition of the following solutions: • MSRV-Env Buffer, used as a negative control, added in complete cell culture medium • MSRV-Env added at 3 nM (0.184 μg/ml) in complete cell culture medium • MSRV-Env (3 nM)+GNbAC1 (200 nM; 29.4 μg/ml) mixture added in complete cell culture medium • GNbAC1 (200 nM) alone added in complete cell culture medium Expression of TLR4 and Myelination Markers in OPC In Vitro […]

[1] = tested on: MSRV-Env induced EAE in C57BL/6 mice; assay: Rotarod test, Example 3.B (MSRV-Env induced EAE); assay type: in vivo; details: GNbAC1 500 μg/mouse given alone, all relevant speeds (16, 26, 29 rpm)
Protocol: 1 day before each immunization, mice were transferred in their home cages, from the holding room to the experimental room. Mice were habituated to the experimental room for 15 min. Mice then received two trials at 10 increasing speed levels, ranging from 7 to 40 rpm. Individual delays before falling off the rotarod (for the two trials at each speed level) was recorded until 60 sec. Thus, training and performance on the Rotarod system were determined for each animal.
The ROTAROD test results are expressed as kinetics of the mean of individual scores for each group with SEM indicated by bars, for each test day and for each test speed within the discriminating range for neuromotor impairment in present conditions (16 to 29 rpm).
They are calculated for each individual mouse, for each test day and for each speed value, as the relative gain or loss of time on Rotarod (before falling), compared to the first test day at the same speed (D-7, before starting the disease induction in relevant groups). The value is calculated as “Time on Rotarod at dayX”−“Time at Day-7 for the same mouse at the same speed”. […]

B1: GNbAC1: recombinant humanized anti-Env IgG4 monoclonal antibody comprising the CDRs of SEQ ID No. 1 to 6 (antibody, chains of the INN, looked up, V domains shown)
VH: QVQLVQSGAEVKKPGSSVKVSCKASGYTFTDYEMHWVRQAPGQGLEWIGAVAPETGGTAYNQKFKGRATITADKSTSTAYMELSSLRSEDTAVYYCTSTVVPFAYWGQGTLVTVSS
VL: QIQLTQSPSSLSASVGDRVTITCSASSSVSYMYWYQQKPGKAPKAWIYRTSNLASGVPSRFSGSGSGTDYTLTISSLQPEDFATYYCQQYQSLPLTFGGGTKVEIK
- effect on percentage of CNPase positive OPC without MSRV-Env (human OPC; GNbAC1 50 nM or 200 nM coated alone or with BSA 1 μg/ml, 24 hours): no effect
- effect on the decrease of CNPase positive cells induced by coated MSRV-Env (human OPC; GNbAC1 50 nM or 200 nM, protocols GNbAC1-A and GNbAC1-B, 24 hours): significantly inhibits; also recorded: fully inhibits MSRV-Env effect
- percentage of CNPase positive cells (human OPC; GNbAC1 200 nM alone in culture medium, 24 hours): 74±2%
- effect on CNPase expression of GNbAC1 alone in culture medium (human OPC; GNbAC1 200 nM alone, 24 hours): no effect; also recorded: does not show any effect alone
- effect on the inhibition of CNPase expression induced by coated MSRV-Env (human OPC; GNbAC1 200 nM, both protocols, 24 hours, OPC ICC 03): completely reverses; also recorded: fully inhibits MSRV-Env effect
- percentage of CNPase positive cells (human OPC; GNbAC1-A 50 nM (mixture with MSRV-Env 1 μg/ml coated), 24 hours, OPC ICC 02): 69±4%
- percentage of CNPase positive cells (human OPC; GNbAC1-A 200 nM (mixture with MSRV-Env 1 μg/ml coated), 24 hours, OPC ICC 02): 80±2%
- CNPase positive cells, normalized to control condition (buffer = 100%) (human OPC; GNbAC1-A 200 nM with coated MSRV-Env): 102±1%
- percentage of CNPase positive cells (human OPC; GNbAC1-A 200 nM, coated MSRV-Env 1 μg/ml, 24 hours, OPC ICC 03): 90±2%
- percentage of CNPase positive cells (human OPC; GNbAC1-B 50 nM (coated after MSRV-Env 1 μg/ml), 24 hours, OPC ICC 02): 96±3%
- percentage of CNPase positive cells (human OPC; GNbAC1-B 200 nM (coated after MSRV-Env 1 μg/ml), 24 hours, OPC ICC 02): 76±4%
- CNPase positive cells, normalized to control condition (buffer = 100%) (human OPC; GNbAC1-B 200 nM with coated MSRV-Env): 101±1%
- percentage of CNPase positive cells (human OPC; GNbAC1-B 200 nM, coated MSRV-Env 1 μg/ml, 24 hours, OPC ICC 03): 91±4%
- percentage of CNPase positive cells (human OPC; MSRV-Env 3 nM + GNbAC1 200 nM in culture medium, 24 hours): 76±2%
- effect on the decrease of CNPase expression induced by MSRV-Env in culture medium (human OPC; MSRV-Env 3 nM, GNbAC1 200 nM, 24 hours): fully antagonizes; also recorded: inhibits completely this effect
- Rotarod, improvement of neurological deficit [1]: significantly the most efficient product
